Patent US20240002501A1 (Memorial Sloan Kettering, published 2024)
Residue numbers refer to the chain shown, from its start. Where two headings read alike, the source gives them in different places. Each block holds one binder with its values, some of them ahead of it.

Legend:
CD3 on CD3(+) T cells = molecular target: T1, CD3 on CD3(+) T cells (UniProt P07766 23-207); experiment: FACS immunostaining of CD3(+) T cells
T1 construct: whole, on cells; CD3 is a complex of several chains

[1] = molecular target: T2, L1-CAM on L1-CAM(+) human tumor cells (human, UniProt P32004 20-1257); experiment: cell-based or functional assay
T2 sequence (P32004 20-1257 limits assumed): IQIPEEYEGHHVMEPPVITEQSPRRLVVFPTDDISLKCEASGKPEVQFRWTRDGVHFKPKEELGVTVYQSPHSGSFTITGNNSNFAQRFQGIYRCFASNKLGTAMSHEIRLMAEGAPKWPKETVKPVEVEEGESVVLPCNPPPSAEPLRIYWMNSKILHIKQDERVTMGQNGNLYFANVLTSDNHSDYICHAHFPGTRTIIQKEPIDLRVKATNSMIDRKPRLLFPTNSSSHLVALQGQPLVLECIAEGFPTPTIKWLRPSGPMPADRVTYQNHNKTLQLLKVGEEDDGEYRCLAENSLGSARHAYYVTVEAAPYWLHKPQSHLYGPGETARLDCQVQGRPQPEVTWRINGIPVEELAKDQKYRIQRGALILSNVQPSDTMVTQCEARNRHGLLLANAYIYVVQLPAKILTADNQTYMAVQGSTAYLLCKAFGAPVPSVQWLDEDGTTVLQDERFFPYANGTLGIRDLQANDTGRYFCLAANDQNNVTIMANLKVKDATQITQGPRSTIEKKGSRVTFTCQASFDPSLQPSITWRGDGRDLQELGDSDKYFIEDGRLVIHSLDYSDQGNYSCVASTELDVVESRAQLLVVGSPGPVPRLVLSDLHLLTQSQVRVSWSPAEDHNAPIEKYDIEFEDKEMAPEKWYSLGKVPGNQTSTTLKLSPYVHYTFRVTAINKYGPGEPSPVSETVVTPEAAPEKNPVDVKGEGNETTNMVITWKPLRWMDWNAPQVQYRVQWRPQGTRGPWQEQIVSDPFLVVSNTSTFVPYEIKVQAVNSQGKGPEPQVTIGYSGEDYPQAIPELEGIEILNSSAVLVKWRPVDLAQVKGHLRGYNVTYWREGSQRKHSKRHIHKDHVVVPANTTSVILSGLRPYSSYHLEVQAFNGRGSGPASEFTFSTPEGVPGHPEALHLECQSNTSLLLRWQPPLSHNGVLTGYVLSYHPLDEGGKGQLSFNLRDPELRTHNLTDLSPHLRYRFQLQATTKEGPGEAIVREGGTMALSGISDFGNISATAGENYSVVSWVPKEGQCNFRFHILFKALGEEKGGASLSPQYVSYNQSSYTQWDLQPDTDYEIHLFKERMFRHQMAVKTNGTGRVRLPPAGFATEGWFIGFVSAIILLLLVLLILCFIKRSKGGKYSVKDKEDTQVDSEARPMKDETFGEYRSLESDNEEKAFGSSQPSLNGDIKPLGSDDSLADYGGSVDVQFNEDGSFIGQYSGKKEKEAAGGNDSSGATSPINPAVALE

[2] = molecular target: T2, L1-CAM on L1-CAM(+) human tumor cells; experiment: cell-based or functional assay; remark: listed apart in the source
L1-CAM-Fc [3] = molecular target: T3, L1-CAM-Fc (UniProt P32004 20-1120, limits assumed); experiment: SPR (Biacore T100), L1-CAM-Fc immobilised on CM5 chip
T3 construct: also called antigen L1-CAM-Fc; not shown: Fc part
T3 sequence (P32004 20-1120 limits assumed): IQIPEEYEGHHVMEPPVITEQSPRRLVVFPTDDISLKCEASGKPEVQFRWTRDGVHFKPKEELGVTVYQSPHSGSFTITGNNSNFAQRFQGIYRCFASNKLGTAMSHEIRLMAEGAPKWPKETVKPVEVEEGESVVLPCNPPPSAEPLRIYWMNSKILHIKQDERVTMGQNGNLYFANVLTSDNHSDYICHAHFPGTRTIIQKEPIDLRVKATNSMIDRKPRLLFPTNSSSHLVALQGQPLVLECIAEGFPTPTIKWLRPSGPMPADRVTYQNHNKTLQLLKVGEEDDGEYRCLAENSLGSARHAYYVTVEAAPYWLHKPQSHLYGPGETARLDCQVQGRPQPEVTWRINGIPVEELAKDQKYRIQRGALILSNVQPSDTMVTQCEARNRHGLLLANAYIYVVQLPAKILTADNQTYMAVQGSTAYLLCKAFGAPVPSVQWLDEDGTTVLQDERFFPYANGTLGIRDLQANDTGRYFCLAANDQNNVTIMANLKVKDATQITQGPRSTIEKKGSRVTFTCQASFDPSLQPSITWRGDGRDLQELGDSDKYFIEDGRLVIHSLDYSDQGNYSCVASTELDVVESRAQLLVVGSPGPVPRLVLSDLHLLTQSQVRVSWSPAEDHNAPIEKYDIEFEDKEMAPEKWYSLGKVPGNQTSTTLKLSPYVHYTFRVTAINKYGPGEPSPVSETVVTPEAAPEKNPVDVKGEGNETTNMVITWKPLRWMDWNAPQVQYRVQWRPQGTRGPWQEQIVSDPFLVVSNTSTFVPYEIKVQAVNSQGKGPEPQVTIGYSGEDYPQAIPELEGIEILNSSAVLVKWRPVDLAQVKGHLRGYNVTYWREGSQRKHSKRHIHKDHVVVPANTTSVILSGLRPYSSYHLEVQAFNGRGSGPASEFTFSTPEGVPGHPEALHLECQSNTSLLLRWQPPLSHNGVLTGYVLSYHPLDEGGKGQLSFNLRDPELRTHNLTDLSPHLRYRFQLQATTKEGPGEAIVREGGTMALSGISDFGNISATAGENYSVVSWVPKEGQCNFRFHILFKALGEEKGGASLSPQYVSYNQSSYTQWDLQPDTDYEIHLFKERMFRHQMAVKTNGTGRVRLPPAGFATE
Experimental: (§1) In Vitro Binding Kinetics by Biacore T-100 Biosensor (GE Healthcare, Uppsala, Sweden). CM5 sensor chip (Research grade) and related reagents were purchased from Biacore USA (Piscataway, NJ). Antigen L1-CAM-Fc or L1-CAM-His was directly immobilized onto the CM5 sensor chip according to the manufacturer's instructions. Purified monoclonal antibodies (MoAbs) (mouse, chimeric IgG1 and IgG4, and humanized IgG1 and IgG4 versions of E71 and E72, and their IgG1n glycoforms) were diluted in HBS-EP buffer at varying concentrations (41.7˜666.7 nM) prior to analysis. Samples were injected over the sensor surface at a flow rate of 30 μl/min over 1 min. Association time was set for 1 min, dissociation time was set for from 5 min to 15 min. At the end of each cycle, the surface was regenerated using 50 mM NaOH at a flow rate of 50 μl/min over 1 min. The data were analyzed by the bivalent analyte model and default parameter setting for the rate constants using the Biacore T-100 evaluation software, and the apparent association on rate constant (kₒₙ), dissociation off rate constant (koff) and equilibrium dissociation constant (Kd=koff/kₒₙ) were calculated.
The binding of huE71-BsAb and huE72-BsAb to both target cells and effector cells was tested by FACS immunostaining. huE71-BsAb was equally efficient as parental huE71 in binding to L1-CAM(+) neuroblastoma BE(2)C, whereas the binding of huE72-BsAb to BE(2)C was half of that observed with huE71-BsAb (FIG. 38(A)). For binding to CD3(+) T cells, both huE71-BsAb and huE72-BsAb were less efficient compared to huOKT3 IgG1; around 20 fold weaker than huOKT3 (FIG. 38(B)). The reduced avidity of the light chain-anchored scFv of the BsAbs for T cells was attributable in part to the spatial constraints of this format, but is advantageous for minimizing cytokine release especially when target cells were not present.

L1-CAM-Fc [4] = molecular target: T3, L1-CAM-Fc; experiment: as above; remark: listed apart in the source
Experimental: as §1

L1-CAM-His = molecular target: T4, L1-CAM-His; experiment: SPR (Biacore T100), L1-CAM-His immobilised on CM5 chip
T4 construct: recombinant soluble His-tagged antigen immobilised on the CM5 chip; also called antigen L1-CAM-His
T4 sequence (P32004 20-1120): as the sequence (P32004 20-1120 limits assumed) above
Experimental: as §1

T1 sequence (P07766 23-207): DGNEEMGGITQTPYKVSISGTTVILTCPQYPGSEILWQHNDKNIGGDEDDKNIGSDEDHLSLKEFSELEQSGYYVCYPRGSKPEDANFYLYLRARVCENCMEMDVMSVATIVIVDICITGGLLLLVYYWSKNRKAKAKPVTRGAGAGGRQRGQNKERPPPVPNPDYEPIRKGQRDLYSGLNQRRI

B1: huE72-BsAb (huE72-huOKT3) (bispecific antibody, human IgG1, kappa, N297A)
heavy: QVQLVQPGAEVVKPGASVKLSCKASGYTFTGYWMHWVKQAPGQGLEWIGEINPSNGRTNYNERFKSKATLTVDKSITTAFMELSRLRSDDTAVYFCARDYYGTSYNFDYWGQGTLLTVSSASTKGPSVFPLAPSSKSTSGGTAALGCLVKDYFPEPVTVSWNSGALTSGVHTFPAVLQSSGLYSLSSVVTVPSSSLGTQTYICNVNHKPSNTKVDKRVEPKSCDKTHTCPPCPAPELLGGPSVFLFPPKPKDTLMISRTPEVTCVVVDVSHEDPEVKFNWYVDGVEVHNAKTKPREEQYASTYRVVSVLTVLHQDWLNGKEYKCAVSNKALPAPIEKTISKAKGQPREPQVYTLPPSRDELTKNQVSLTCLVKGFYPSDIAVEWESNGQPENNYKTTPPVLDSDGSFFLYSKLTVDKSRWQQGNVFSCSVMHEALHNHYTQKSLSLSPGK
light: DIQMTQSPSSLSVSVGDRVTITCKANEDINNRLAWYQQKPGKAPKLLISGATNLVTGVPSRFSGSGSGTDYTLTISSLQPEDFATYYCQQYWSTPFTFGQGTELEIKRTVAAPSVFIFPPSDEQLKSGTASVVCLLNNFYPREAKVQWKVDNALQSGNSQESVTEQDSKDSTYSLSSTLTLSKADYEKHKVYACEVTHQGLSSPVTKSFNRGECTSGGGGSGGGGSGGGGSQVQLVQSGGGVVQPGRSLRLSCKASGYTFTRYTMHWVRQAPGKCLEWIGYINPSRGYTNYNQKFKDRFTISRDNSKNTAFLQMDSLRPEDTGVYFCARYYDDHYSLDYWGQGTPVTVSSGGGGSGGGGSGGGGSGGGGSGGGGSGGGGSDIQMTQSPSSLSASVGDRVTITCSASSSVSYMNWYQQTPGKAPKRWIYDTSKLASGVPSRFSGSGSGTDYTFTISSLQPEDIATYYCQQWSSNPFTFGCGTKLQITR
notes: IgG-scFv format with huOKT3 scFv on the light chain; also called humanized E72-BsAb
fold weaker binding than huOKT3 IgG1 (CD3 on CD3(+) T cells): ~20 fold
T cell cytotoxicity EC50, 4-hour 51Cr release assay, activated T cells (E:T ratio=10:1), IMR32-luciferase cell line [1]: 0.05 nM
EC50 of T cell cytotoxicity (4 h 51Cr release, E:T 10:1) on BE(1)N neuroblastoma cells (L1CAM MFI 614) [2]: 0.014 nM
EC50 of T cell cytotoxicity (4 h 51Cr release, E:T 10:1) on BE(2)C neuroblastoma cells (L1CAM MFI 608) [2]: 0.05 nM
EC50 of T cell cytotoxicity (4 h 51Cr release, E:T 10:1) on BE(2)S neuroblastoma cells (L1CAM MFI 166) [2]: 0.251 nM
EC50 of T cell cytotoxicity (4 h 51Cr release, E:T 10:1) on HTB24 breast CA cells (L1CAM MFI 431) [2]: 0.027 nM
EC50 of T cell cytotoxicity (4 h 51Cr release, E:T 10:1) on HTB26 breast CA cells (L1CAM MFI 33) [2]: 0.056 nM
EC50 of T cell cytotoxicity (4 h 51Cr release, E:T 10:1) on IMR32 LUC neuroblastoma cells (L1CAM MFI 285) [2]: 0.05 nM
EC50 of T cell cytotoxicity (4 h 51Cr release, E:T 10:1) on MCF7 breast CA cells (L1CAM MFI 54) [2]: 0.1 nM
EC50 of T cell cytotoxicity (4 h 51Cr release, E:T 10:1) on NB1691 neuroblastoma cells (L1CAM MFI 742) [2]: 0.031 nM
EC50 of T cell cytotoxicity (4 h 51Cr release, E:T 10:1) on NMB7 neuroblastoma cells (L1CAM MFI 224) [2]: 0.046 nM
EC50 of T cell cytotoxicity (4 h 51Cr release, E:T 10:1) on SKMEL5 melanoma cells (L1CAM MFI 269) [2]: 0.027 nM
EC50 of T cell cytotoxicity (4 h 51Cr release, E:T 10:1) on SKMEL28 melanoma cells (L1CAM MFI 184) [2]: 0.14 nM
EC50 of T cell cytotoxicity (4 h 51Cr release, E:T 10:1) on SKNMM LUC neuroblastoma cells (L1CAM MFI 598) [2]: 0.071 nM
EC50 of T cell cytotoxicity (4 h 51Cr release, E:T 10:1) on SKNSH neuroblastoma cells (L1CAM MFI 23) [2]: 0.158 nM
Kd (L1-CAM-Fc [3]): 5.28 nM
koff (L1-CAM-Fc [3]): 0.000189 s⁻¹
kon (L1-CAM-Fc [3]): 35800 M⁻¹ s⁻¹

B3: huE71-H2L1 (antibody, human IgG1, kappa, V domains shown)
VH: QVQLVQSGSELKKPGASVKLSCKASGYTFTSYWMQWVRQAPGQGLEWIGEINPSNGRTNYNEMFKSRAVLSVDTSVSTAYMQLCSLKAEDTAVYYCALYDGYYAMDYWGQGTLVTVSS
VL: DIVMTQSPSSLAVSVGERVTMSCKSSQSLLYSSNQKNYLAWYQQKPGQSPKLLIYWASTRESGVPDRFSGSGSGTDFTLTISSVKAEDVALYYCQQYHSYPFTFGQGTKLEIKR
Kd (L1-CAM-Fc [4]): 4.26 nM

B5: huE71-H2L2 (antibody, human IgG1, kappa, V domains shown)
VH: B3 VH
VL: B3 VL with S9D, V15L, S22N, S49P, V84L, K85Q
Kd (L1-CAM-Fc [4]): 2.72 nM

B6: huE72-IgG1 (huE72 H1/L2) (antibody, V domains shown)
VH: QVQLVQPGAEVVKPGASVKLSCKASGYTFTGYWMHWVKQAPGQGLEWIGEINPSNGRTNYNERFKSKATLTVDKSITTAFMELSRLRSDDTAVYFCARDYYGTSYNFDYWGQGTLLTVSS
VL: DIQMTQSPSSLSVSVGDRVTITCKANEDINNRLAWYQQKPGKAPKLLISGATNLVTGVPSRFSGSGSGTDYTLTISSLQPEDFATYYCQQYWSTPFTFGQGTELEIKR
notes: Human IgG1; also called humanized E72 IgG1
Kd (L1-CAM-His): 0.27 nM
Kd (L1-CAM-Fc [4]): 0.252 nM
Kd (L1-CAM-Fc [3]): 1.88 nM
koff (L1-CAM-Fc [3]): 0.000139 s⁻¹
kon (L1-CAM-Fc [3]): 74000 M⁻¹ s⁻¹

B7: E72-H2L2 (antibody, human IgG1, kappa, V domains shown)
VH: B6 VH with V12K, K38R, K67R, T77S, F80Y
VL: B6 VL
notes: also called huE72 H2/L2
Kd (L1-CAM-His): 0.667 nM
Kd (L1-CAM-Fc [4]): 0.536 nM

Now from value to binder:

Kd (L1-CAM-Fc [4]): 0.314 nM
Kd (L1-CAM-Fc [3]): 2.23 nM
koff (L1-CAM-Fc [3]): 0.000199 s⁻¹
kon (L1-CAM-Fc [3]): 89300 M⁻¹ s⁻¹
B2: E71 (antibody, V domains shown)
VH: QVQLQQPGDELVKPGASVKLSCKASGYTFTSYWMQWVKQRPGQGLEWIGEINPSNGRTNYNEMFKSKATLTVDKSSSTAYMQLSSLTSEDSAVYYCALYDGYYAMDYWGQGTSVTVSS
VL: DIVMSQSPSSLAVSVGEKVTMSCKSSQSLLYSSNQKNYLAWYQQKPGQSPKLLIYWASTRESGVPDRFTGSGSGTDFTLTISSVKAEDLALYYCQQYHSYPFTFGSGTKLEIK
notes: parental murine anti-L1-CAM antibody; also called mouse E71; murine E71; copies: 2 + 2

Kd (L1-CAM-Fc [4]): 0.517 nM
B4: huE71-H1L2 (antibody, human IgG1, kappa, V domains shown)
VH: B2 VH with Q5V, T69V, T71S, S76V, S88A, S91T, S113L
VL: B3 VL with S9D, V15L, S22N, S49P, V84L, K85Q

Kd (L1-CAM-His): 0.114 nM
Kd (L1-CAM-Fc [4]): 0.0893 nM
B8: E72-H1L1 (antibody, human IgG1, kappa, V domains shown)
VH: B6 VH
VL: B6 VL with P8S, L11F, A43S, K45R, P80A
notes: also called huE72 H1/L1

Kd (L1-CAM-His): 0.355 nM
Kd (L1-CAM-Fc [4]): 0.353 nM
B9: E72-H2L1 (antibody, human IgG1, kappa, V domains shown)
VH: B6 VH with V12K, K38R, K67R, T77S, F80Y
VL: B6 VL with P8S, L11F, A43S, K45R, P80A
notes: also called huE72 H2/L1
